Measurements from the supplement of paper PMC12042874.
± gives the uncertainty stated by the source.

Test: amyloid nucleation score (Sup35N fusion, yeast selection) (log enrichment); library NNK3; higher = more nucleation; inactive = no reads after selection
Summary of the method: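 The nucleation score is a DiMSum log enrichment of output over input reads, centred on the mode score of non-aggregating sequences. Sequences under 100 input reads were excluded, and reads came from Illumina sequencing of plasmid inserts. Psi-negative yeast expressing Sup35N fused to peptides of 20 random codons were induced with 100 μM copper sulfate for 24 hours and grown 7 days at 30°C on medium lacking adenine and uracil. Random libraries had three technical output replicates.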

Substance | amyloid nucleation score
ISTKDTLM | inactive
ISVFIRTCMWKFVVVPRGYW | inactive
ISVVGILLGLSSFPVYSVSW | inactive
ISYSAMVNCPDEIWVRYSSW | inactive
ITALDWY | inactive
ITAVVVSDMYH | inactive
ITGPTSVYE | inactive
ITRTYNYLYTCINTFRQPSV | 0.045 ± 0.45
ITRWHGSLHSDYGIGICFSI | inactive
ITRWLIVLAVMYYSILSLSV | inactive
IVANGCRWQVRVPWGLTSKW | inactive
IVCRGYSSKWYSVSEYKDNV | 0.016 ± 0.37
IVCRISTTCQWCRINVSGGS | 1.12 ± 0.1
IVDASGQRAMGSDFIHVLHR | inactive
IVFFYAEIGYSPSQCRRRVA | inactive
IVFRLANKPRRANRC | inactive
IVGDRSLRSDEFSCC | inactive
IVGLSHDAINTYLWVVVNAP | inactive
IVIRTSSDTNVRAAVQLRMN | inactive
IVKKHVDFQQTVN | inactive
IVKRFHYYMSVRKLMSKFGL | inactive
IVLCMVFCWSRPWEVIIFKV | inactive

Substance | amyloid nucleation score
IVLIKDYYSIRFDSEGIVDI | inactive
IVLIKSILDANEEGT | inactive
IVMRPSIGMILYSRSPFVYS | inactive
IVMVIAAGWFN | 0.633 ± 0.2
IVRIVK | inactive
IVVFYAFEVFVGEGGKTRVP | inactive
IVWEGSSPLVLIKHGICKQR | inactive
IVYGKHAWWIRLGSIHVFYY | inactive
IVYPFSGLMPDGAFRKEFDA | inactive
IVYRVSVFSWLVMDPDDK | inactive
IVYTMCDFWSSMDLVDNLQG | inactive
IVYTSSLSAMCMRGRNGAVR | inactive
IWDGSADKFVDPHRACRLWR | inactive
IWICYWSCRIKAYRLSNFFD | inactive
IWILRKVVLRVVWMRYLGVK | inactive
IWIRAVDLGLDGLPSFFSIS | inactive
IWKAWDNSSMGCPS | -0.032 ± 0.33
IWLRVITLERLEPQM | inactive
IWRGSKDYKSPVRHFSQAN | inactive
IWSLDNARNYSIVRSVWLG | inactive
IYGVSESVYWIVWANIGVLQ | inactive
IYGWWLGTTYM | 0.656 ± 0.21

Substance | amyloid nucleation score
IYHYIYSASMKLNTHGELMP | inactive
IYIHQDPVFKGCYWLRRGVE | inactive
IYLMISWQWGSGLQPNIRPA | inactive
IYNSAFIGFSRLKVCVYALF | 0.471 ± 0.17
IYPLMKTELGRTMILIDLLE | inactive
IYRLFSARDDIVKDWRR | inactive
IYSVGYRSS | inactive
IYWLSTYRCIKSYSMST | inactive
KAPRCGVKAMLKGVMGFRRR | 0.531 ± 0.24
KAREVGIQWRKWSIIAWNNW | 1.45 ± 0.095
KCAEL | inactive
KCCYRMVVDTV | inactive
KCEFN | inactive
KCGFLTSPHMFSLK | inactive
KCGFYRTVFCSRVCVRS | inactive
KCGRSR | inactive
KCVWWCTNWLNVKWVYSTRC | inactive
KCYNKVWELMLAYG | inactive
KDHLHRRYMGRTAVLREIDI | inactive
KDSCCVGSRNAHFECYFEVA | inactive
